The subject of this data set is Escherichia coli TOP10. The data set is described as follows: shrunken log2 fold change of peptide-encoding DNA abundance (4.5 h post-induction vs induction); higher = less antimicrobial activity (less host growth inhibition). The settings on record: time post-induction: 4.5 h; library: site-saturation at positions 5, 18, 19, 20.
In the case of RRIRFRPPRLPRPRPRPWWDPRP, the “shrunken log2 fold change” value is -0.0745.

As for RRIRNRPPRLPRPRPRPKHRPRP, the “shrunken log2 fold change” value stood at 0.0319.

For the sequence RRIRERPPRLPRPRPRPDQMPRP, the “shrunken log2 fold change” value is -0.161.

Consider RRIRDRPPRLPRPRPRPIDIPRP, for which the “shrunken log2 fold change” value is -0.0169.

With RRIRWRPPRLPRPRPRPVVVPRP, the “shrunken log2 fold change” value stood at 0.281.

Consider RRIRARPPRLPRPRPRPFKMPRP, for which the “shrunken log2 fold change” value was -0.253.

For RRIRKRPPRLPRPRPRPTIAPRP, the “shrunken log2 fold change” value was found to be 0.541.

Regarding RRIRCRPPRLPRPRPRPCHWPRP, the “shrunken log2 fold change” value amounted to 0.0101.

On to RRIRTRPPRLPRPRPRPSNNPRP, for which the “shrunken log2 fold change” value is -0.639.

On to RRIRCRPPRLPRPRPRPENMPRP, for which the “shrunken log2 fold change” value is -0.57.

As to RRIRARPPRLPRPRPRPMPIPRP, the “shrunken log2 fold change” value came to 0.708.

RRIRKRPPRLPRPRPRPVPSPRP: the “shrunken log2 fold change” value was -0.156.

Consider RRIRLRPPRLPRPRPRPSNDPRP, for which the “shrunken log2 fold change” value stood at 2.11.

With RRIRERPPRLPRPRPRPKPCPRP, the “shrunken log2 fold change” value amounted to 0.133.

Turning to RRIRWRPPRLPRPRPRPAHDPRP, the “shrunken log2 fold change” value stood at 0.0987.

Take RRIRNRPPRLPRPRPRPEREPRP: the “shrunken log2 fold change” value was found to be 0.256.

As for RRIRIRPPRLPRPRPRPGAVPRP, the “shrunken log2 fold change” value turned out to be 0.28.

As to RRIRDRPPRLPRPRPRPEKQPRP, the “shrunken log2 fold change” value came out at 0.0247.

On to RRIRPRPPRLPRPRPRPECSPRP, for which the “shrunken log2 fold change” value is -0.0845.

As to RRIRKRPPRLPRPRPRPSWIPRP, the “shrunken log2 fold change” value is -0.487.

On to RRIRTRPPRLPRPRPRPHVAPRP, for which the “shrunken log2 fold change” value is 0.268.

In the case of RRIRARPPRLPRPRPRPTLQPRP, the “shrunken log2 fold change” value turned out to be 0.694.

RRIRMRPPRLPRPRPRPCWSPRP: the “shrunken log2 fold change” value worked out at 0.349.

As for RRIRVRPPRLPRPRPRPKLHPRP, the “shrunken log2 fold change” value is -0.237.

RRIRSRPPRLPRPRPRPVHPPRP: the “shrunken log2 fold change” value was 0.245.

For RRIRYRPPRLPRPRPRPYSNPRP, the “shrunken log2 fold change” value is -0.127.

RRIRGRPPRLPRPRPRPIYWPRP: the “shrunken log2 fold change” value was determined as 0.247.

With RRIRNRPPRLPRPRPRPSINPRP, the “shrunken log2 fold change” value was -0.537.

Turning to RRIRVRPPRLPRPRPRPINKPRP, the “shrunken log2 fold change” value was -0.613.

In the case of RRIRQRPPRLPRPRPRPMLYPRP, the “shrunken log2 fold change” value is -0.282.

Consider RRIRVRPPRLPRPRPRPWDMPRP, for which the “shrunken log2 fold change” value was -0.184.

Consider RRIRARPPRLPRPRPRPITMPRP, for which the “shrunken log2 fold change” value is -0.231.

As to RRIRSRPPRLPRPRPRPWGVPRP, the “shrunken log2 fold change” value was -0.412.

Turning to RRIRQRPPRLPRPRPRPEIGPRP, the “shrunken log2 fold change” value came to 0.0792.

Take RRIRFRPPRLPRPRPRPQKMPRP: the “shrunken log2 fold change” value is -0.221.

For RRIRYRPPRLPRPRPRPSPIPRP, the “shrunken log2 fold change” value is -1.06.

With RRIRHRPPRLPRPRPRPQECPRP, the “shrunken log2 fold change” value was -0.0126.

As for RRIRCRPPRLPRPRPRPFDCPRP, the “shrunken log2 fold change” value was -0.95.

As for RRIRRRPPRLPRPRPRPSSQPRP, the “shrunken log2 fold change” value was -0.25.

For RRIRDRPPRLPRPRPRPDEKPRP, the “shrunken log2 fold change” value came out at 0.0291.

Consider RRIRSRPPRLPRPRPRPVNHPRP, for which the “shrunken log2 fold change” value was -0.462.

As to RRIRIRPPRLPRPRPRPFNVPRP, the “shrunken log2 fold change” value is -0.217.

Turning to RRIRDRPPRLPRPRPRPLTIPRP, the “shrunken log2 fold change” value was -0.257.

In the case of RRIRARPPRLPRPRPRPMRDPRP, the “shrunken log2 fold change” value is 1.04.

Consider RRIRLRPPRLPRPRPRPDFPPRP, for which the “shrunken log2 fold change” value was found to be 0.24.

With RRIRYRPPRLPRPRPRPLDNPRP, the “shrunken log2 fold change” value is -0.0671.

With RRIRDRPPRLPRPRPRPFEIPRP, the “shrunken log2 fold change” value was -0.0367.

For the sequence RRIRHRPPRLPRPRPRPTYVPRP, the “shrunken log2 fold change” value is -0.143.

RRIRGRPPRLPRPRPRPPDWPRP: the “shrunken log2 fold change” value was determined as 1.24.

Consider RRIRMRPPRLPRPRPRPEGCPRP, for which the “shrunken log2 fold change” value is 3.93.

Turning to RRIRTRPPRLPRPRPRPMYKPRP, the “shrunken log2 fold change” value is -0.0126.

For RRIRIRPPRLPRPRPRPSPWPRP, the “shrunken log2 fold change” value was -0.34.

As for RRIRHRPPRLPRPRPRPQFAPRP, the “shrunken log2 fold change” value stood at 0.0852.

Turning to RRIRHRPPRLPRPRPRPPSMPRP, the “shrunken log2 fold change” value was -0.343.

For the sequence RRIRNRPPRLPRPRPRPASDPRP, the “shrunken log2 fold change” value stood at 0.278.

RRIRQRPPRLPRPRPRPLWIPRP: the “shrunken log2 fold change” value is -0.0179.

For RRIRVRPPRLPRPRPRPSIQPRP, the “shrunken log2 fold change” value was -0.321.

Turning to RRIRFRPPRLPRPRPRPYVNPRP, the “shrunken log2 fold change” value was -1.52.

RRIRQRPPRLPRPRPRPPWKPRP: the “shrunken log2 fold change” value amounted to 0.467.

Consider RRIRYRPPRLPRPRPRPTLHPRP, for which the “shrunken log2 fold change” value is -0.749.

With RRIRQRPPRLPRPRPRPLREPRP, the “shrunken log2 fold change” value was found to be 1.44.

As to RRIRERPPRLPRPRPRPFEKPRP, the “shrunken log2 fold change” value is 0.00177.

Regarding RRIRWRPPRLPRPRPRPDVYPRP, the “shrunken log2 fold change” value was determined as 0.00123.

On to RRIRARPPRLPRPRPRPYMRPRP, for which the “shrunken log2 fold change” value was -0.0199.

As for RRIRERPPRLPRPRPRPQIIPRP, the “shrunken log2 fold change” value is -1.12.

Take RRIRCRPPRLPRPRPRPYRPPRP: the “shrunken log2 fold change” value was -0.352.

On to RRIRRRPPRLPRPRPRPMKWPRP, for which the “shrunken log2 fold change” value turned out to be 0.016.

In the case of RRIRPRPPRLPRPRPRPTSDPRP, the “shrunken log2 fold change” value turned out to be 0.0712.

As for RRIRDRPPRLPRPRPRPLAVPRP, the “shrunken log2 fold change” value is 0.887.

Take RRIRKRPPRLPRPRPRPCPQPRP: the “shrunken log2 fold change” value is 0.242.

Take RRIRVRPPRLPRPRPRPRITPRP: the “shrunken log2 fold change” value is -0.11.

Consider RRIRNRPPRLPRPRPRPVSEPRP, for which the “shrunken log2 fold change” value was -0.253.

Regarding RRIRRRPPRLPRPRPRPRHFPRP, the “shrunken log2 fold change” value was -0.156.

Turning to RRIRGRPPRLPRPRPRPIWPPRP, the “shrunken log2 fold change” value was 0.23.

For RRIRQRPPRLPRPRPRPIEKPRP, the “shrunken log2 fold change” value came to 0.0125.

RRIRWRPPRLPRPRPRPEKRPRP: the “shrunken log2 fold change” value came out at 0.028.

Consider RRIRPRPPRLPRPRPRPPWKPRP, for which the “shrunken log2 fold change” value came out at 0.416.

RRIRCRPPRLPRPRPRPTFCPRP: the “shrunken log2 fold change” value is -0.0442.

Take RRIRVRPPRLPRPRPRPIGEPRP: the “shrunken log2 fold change” value turned out to be 0.0407.

RRIRTRPPRLPRPRPRPPNAPRP: the “shrunken log2 fold change” value turned out to be 0.535.

On to RRIRERPPRLPRPRPRPIHIPRP, for which the “shrunken log2 fold change” value turned out to be 0.0108.

On to RRIRWRPPRLPRPRPRPYKVPRP, for which the “shrunken log2 fold change” value was -0.482.

As for RRIRKRPPRLPRPRPRPTKMPRP, the “shrunken log2 fold change” value was found to be 0.229.

Regarding RRIRWRPPRLPRPRPRPKKFPRP, the “shrunken log2 fold change” value is 0.0141.

In the case of RRIRHRPPRLPRPRPRPVEDPRP, the “shrunken log2 fold change” value was -0.0354.

With RRIRIRPPRLPRPRPRPQWNPRP, the “shrunken log2 fold change” value is -0.316.

Regarding RRIRNRPPRLPRPRPRPTYPPRP, the “shrunken log2 fold change” value is -0.275.

Turning to RRIRRRPPRLPRPRPRPRSTPRP, the “shrunken log2 fold change” value is 0.36.

With RRIRFRPPRLPRPRPRPIHEPRP, the “shrunken log2 fold change” value is -0.169.

As for RRIRLRPPRLPRPRPRPADHPRP, the “shrunken log2 fold change” value was -0.53.

As for RRIRQRPPRLPRPRPRPRGWPRP, the “shrunken log2 fold change” value was found to be 0.267.

Regarding RRIRFRPPRLPRPRPRPYYFPRP, the “shrunken log2 fold change” value was -0.706.

With RRIRYRPPRLPRPRPRPDTPPRP, the “shrunken log2 fold change” value turned out to be 0.0497.

For the sequence RRIRSRPPRLPRPRPRPARHPRP, the “shrunken log2 fold change” value came out at 0.277.

For RRIRARPPRLPRPRPRPKVYPRP, the “shrunken log2 fold change” value is -0.0122.

As to RRIRGRPPRLPRPRPRPPGIPRP, the “shrunken log2 fold change” value is 0.745.

As for RRIRFRPPRLPRPRPRPGGSPRP, the “shrunken log2 fold change” value was -0.0392.

For RRIRWRPPRLPRPRPRPILRPRP, the “shrunken log2 fold change” value is -0.0505.

In the case of RRIRFRPPRLPRPRPRPYMQPRP, the “shrunken log2 fold change” value is -0.68.

Consider RRIRTRPPRLPRPRPRPSASPRP, for which the “shrunken log2 fold change” value is -0.0732.

Turning to RRIRKRPPRLPRPRPRPKYMPRP, the “shrunken log2 fold change” value is -0.0337.

RRIRYRPPRLPRPRPRPNIKPRP: the “shrunken log2 fold change” value was -1.13.

RRIRQRPPRLPRPRPRPAPPPRP: the “shrunken log2 fold change” value was found to be 0.702.

Regarding RRIRGRPPRLPRPRPRPGTRPRP, the “shrunken log2 fold change” value turned out to be 0.703.

In the case of RRIRNRPPRLPRPRPRPKKQPRP, the “shrunken log2 fold change” value is -0.0788.

For RRIRYRPPRLPRPRPRPPPDPRP, the “shrunken log2 fold change” value was found to be 0.7.

Turning to RRIRWRPPRLPRPRPRPDVGPRP, the “shrunken log2 fold change” value was found to be 0.181.

RRIRLRPPRLPRPRPRPTFCPRP: the “shrunken log2 fold change” value stood at 0.0876.

On to RRIRCRPPRLPRPRPRPNFTPRP, for which the “shrunken log2 fold change” value is -0.158.

Regarding RRIRSRPPRLPRPRPRPNWKPRP, the “shrunken log2 fold change” value was determined as 0.00354.

With RRIRQRPPRLPRPRPRPTLPPRP, the “shrunken log2 fold change” value stood at 1.69.

As to RRIRFRPPRLPRPRPRPALWPRP, the “shrunken log2 fold change” value was 0.625.

With RRIRGRPPRLPRPRPRPTPPPRP, the “shrunken log2 fold change” value turned out to be 1.06.

Turning to RRIRWRPPRLPRPRPRPKRIPRP, the “shrunken log2 fold change” value is 0.364.

Take RRIRARPPRLPRPRPRPTSFPRP: the “shrunken log2 fold change” value was found to be 0.237.

In the case of RRIRARPPRLPRPRPRPRAKPRP, the “shrunken log2 fold change” value came out at 0.868.

Turning to RRIRVRPPRLPRPRPRPFPQPRP, the “shrunken log2 fold change” value is -0.312.

Turning to RRIRNRPPRLPRPRPRPYPLPRP, the “shrunken log2 fold change” value is -0.042.

Regarding RRIRKRPPRLPRPRPRPEFTPRP, the “shrunken log2 fold change” value was determined as 0.738.

In the case of RRIRARPPRLPRPRPRPQTFPRP, the “shrunken log2 fold change” value is -0.528.

As to RRIRLRPPRLPRPRPRPSMNPRP, the “shrunken log2 fold change” value was -0.345.

In the case of RRIRLRPPRLPRPRPRPRARPRP, the “shrunken log2 fold change” value was determined as 0.619.

RRIRVRPPRLPRPRPRPKTQPRP: the “shrunken log2 fold change” value turned out to be 0.0766.

On to RRIRKRPPRLPRPRPRPYEYPRP, for which the “shrunken log2 fold change” value amounted to 0.0169.

For RRIRSRPPRLPRPRPRPLDAPRP, the “shrunken log2 fold change” value was determined as 0.259.

The values above are taken from the supplement of paper PMC9112550, “Optimization of the antimicrobial peptide Bac7 by deep mutational scanning” (BMC Biology, 2022).
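Also: peptides expressed intracellularly from a pBAD plasmid library in pooled LB shake-flask culture, induced with 0.3% L-arabinose, DNA abundance read by NGS, three biological replicates, DESeq2 with apeglm shrinkage.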
